# B1: 5'FITC-90mer ssDNA (ssDNA)
# DNA: AAATCAATCTAAAGTATATATGAGTAAACTTGGTCTGACAGTTACCAATGCTTAATCAGTGAGGCACCTATCTCAGCGATCTGTCTATTT
# B2: oligo-dT 43-mer (ssDNA)
# DNA: TTTTTTTTTTTTTTTTTTTTTTTTTTTTTTTTTTTTTTTTTTT
# B3: Cy3-(dT)79 (ssDNA)
# DNA: TTTTTTTTTTTTTTTTTTTTTTTTTTTTTTTTTTTTTTTTTTTTTTTTTTTTTTTTTTTTTTTTTTTTTTTTTTTTTTT
# Columns and labels:
# RAD51 WT [1] = target: T1, RAD51 WT (Homo sapiens, UniProt Q06609 1-339); test: EMSA; 1 mM ATP, 1 mM Mg2+; no Ex27; complex disassembled by GST-BRC3; EMSA: 10 mM Tris-HCl pH 7.5, 10 mM KCl, 1 mM MgCl2, 1 mM ATP, 1 mM DTT, 25 C, 25 nM DNA, 1.1 uM RAD51; BLI: 50 mM Tris-HCl pH 7.5, 50 mM KCl, 5 mM MgCl2, 2 mM ATP, 0.05% Tween 20, 15 nM DNA; stopped-flow buffer not in material; settings: protein: recombinant; chain copies: 10; label: 5' FAM (FITC); single strand
# T1 sequence (Q06609 whole entry): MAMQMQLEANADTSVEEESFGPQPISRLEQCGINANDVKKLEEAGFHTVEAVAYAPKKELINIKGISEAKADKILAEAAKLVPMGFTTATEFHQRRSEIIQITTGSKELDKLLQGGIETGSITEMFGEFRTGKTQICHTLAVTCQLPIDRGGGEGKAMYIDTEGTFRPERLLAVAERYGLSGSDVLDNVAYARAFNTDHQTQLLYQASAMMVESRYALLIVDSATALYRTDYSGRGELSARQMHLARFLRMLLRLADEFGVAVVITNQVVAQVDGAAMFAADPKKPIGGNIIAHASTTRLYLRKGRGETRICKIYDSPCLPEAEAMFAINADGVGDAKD
# [2] = target: T2, RAD51 WT;BRCA2 Ex27 peptide (TR2) (Homo sapiens;Homo sapiens, UniProt Q06609;P51587 1-339;, |); test: EMSA super-shift; 5.7 uM Ex27, 1 mM ATP, 1 mM Mg2+; almost completely resistant to GST-BRC3; EMSA: 10 mM Tris-HCl pH 7.5, 10 mM KCl, 1 mM MgCl2, 1 mM ATP, 1 mM DTT, 25 C, 25 nM DNA, 1.1 uM RAD51; BLI: 50 mM Tris-HCl pH 7.5, 50 mM KCl, 5 mM MgCl2, 2 mM ATP, 0.05% Tween 20, 15 nM DNA; stopped-flow buffer not in material; settings: tags: ;; label: 5' FAM (FITC); single strand
# RAD51 S181P (SP) [3] = target: T3, RAD51 S181P (SP) (Homo sapiens, UniProt Q06609 1-339, S181P); test: BLI; 2 mM ATP, 5 mM Mg2+; 2 uM RAD51; dissociated by GST-BRC4; EMSA: 10 mM Tris-HCl pH 7.5, 10 mM KCl, 1 mM MgCl2, 1 mM ATP, 1 mM DTT, 25 C, 25 nM DNA, 1.1 uM RAD51; BLI: 50 mM Tris-HCl pH 7.5, 50 mM KCl, 5 mM MgCl2, 2 mM ATP, 0.05% Tween 20, 15 nM DNA; stopped-flow buffer not in material; settings: protein: recombinant; chain copies: 10; label: 3' biotin; single strand
# T3 sequence (Q06609 whole entry S181P): as the sequence (Q06609 whole entry) above, with S181P counted along it
# RAD51 WT [4] = target: T1, RAD51 WT; test: as above; settings: protein: recombinant; chain copies: 10; label: 3' biotin; single strand
# RAD51 WT [5] = target: T1, RAD51 WT; test: stopped-flow PIFE; no Ex27; EMSA: 10 mM Tris-HCl pH 7.5, 10 mM KCl, 1 mM MgCl2, 1 mM ATP, 1 mM DTT, 25 C, 25 nM DNA, 1.1 uM RAD51; BLI: 50 mM Tris-HCl pH 7.5, 50 mM KCl, 5 mM MgCl2, 2 mM ATP, 0.05% Tween 20, 15 nM DNA; stopped-flow buffer not in material; settings: protein: recombinant; chain copies: 10; label: 5' Cy3; single strand
# [6] = target: T2, RAD51 WT;BRCA2 Ex27 peptide (TR2); test: stopped-flow PIFE; Ex27 increases amplitude and decreases binding rate; EMSA: 10 mM Tris-HCl pH 7.5, 10 mM KCl, 1 mM MgCl2, 1 mM ATP, 1 mM DTT, 25 C, 25 nM DNA, 1.1 uM RAD51; BLI: 50 mM Tris-HCl pH 7.5, 50 mM KCl, 5 mM MgCl2, 2 mM ATP, 0.05% Tween 20, 15 nM DNA; stopped-flow buffer not in material; settings: tags: ;; label: 5' Cy3; single strand
# RAD51 S181P (SP) [7] = target: T3, RAD51 S181P (SP); test: stopped-flow PIFE; no Ex27; similar mechanism to WT, slower assembly at suboptimal concentrations; EMSA: 10 mM Tris-HCl pH 7.5, 10 mM KCl, 1 mM MgCl2, 1 mM ATP, 1 mM DTT, 25 C, 25 nM DNA, 1.1 uM RAD51; BLI: 50 mM Tris-HCl pH 7.5, 50 mM KCl, 5 mM MgCl2, 2 mM ATP, 0.05% Tween 20, 15 nM DNA; stopped-flow buffer not in material; settings: protein: recombinant; chain copies: 10; label: 5' Cy3; single strand
binder,measurement,setting,value
B1,binding result,RAD51 WT [1],binds
same,binding result,[2],binds
B2,binding result,RAD51 S181P (SP) [3],binds
same,binding result,RAD51 WT [4],binds
B3,binding result,RAD51 WT [5],binds
same,binding result,[6],binds
same,binding result,RAD51 S181P (SP) [7],binds
